The series concerns the target von Willebrand factor (VWF) (Homo sapiens) (UniProt P04275). The series is described as follows: filter. The settings on record: 2'-F pyrimidines; pool after 4 rounds convergent SELEX.

We go through one sequence from US20120264815.

For “GGGAGGACGAUGCGGNNNNNNNNNNNNNNNNNNNNNNNNNNNNNNNNNNNNNNNNCAGACGACUCGCUGAGGAUCC [VWF convergent SELEX round 4 pool (R9)]”, the Kd is 4.5 nM.

In general, Kd refers to the constant that tells how readily two partners part at equilibrium.
